From patent US20220228157A1, “GENE EDITING IN DIVERSE BACTERIA” (priority 2019, published 2022)

Test system: L. lactis
Test: Allelic recombination frequency, selective vs non-selective plates
Assay type: cell-based, Lactococcus lactis
Details: for Genome editing efficiency lower than Redβ with EcSSB: co-expressed with Redβ; for Editing efficiency with chimeric SSB: co-expressed with the RecT
Method: Four variants known to enable high genome editing efficiency were selected (Redβ and PapRecT in E. coli, LrpRecT in L. lactis, and MspRecT in M. smegmatis), and tested codon optimized versions of all four in both E. coli (gram-negative), and L. lactis (gram-positive). Genome editing efficiency was measured by introducing oligos encoding known antibiotic resistance mutations, and compared the antibiotic resistant cell counts to the total number of viable cells in the population (FIGS. 17E-17F). […] In L. lactis, LrpRecT was the only functional homolog, and improved oligo incorporation 7,700-fold, while the three other RecT variants were nearly non-functional, improving oligo incorporation less than 7-fold (FIG. 17H). No RecT protein functioned well both in E. coli and L. lactis.
A single colony of L. lactis was grown overnight to saturation. 500 μL of dense culture was inoculated into 5 mL of fresh media, supplemented with 500 mM sucrose and 2.5% (w/v) glycine, and grown for 3 hours. To induce gene expression of the pJP005 vector for recombineering experiments, the cells were grown for an additional 30 min after adding 1 ng/mL freshly diluted nisin, unless stated otherwise. For the optimized condition (FIG. 20B), 10 ng/mL nisin was used. Cells were pelleted at 4° C. by centrifugation at 5,000×g for 5 minutes and washed twice with 2 mL of ice-cold electroporation buffer (500 mM sucrose containing 10% (w/v) glycerol) by centrifugation at 13,200×g for 2.5 minutes. Cells were resuspended in 80 μL ice-cold electroporation buffer containing DNA and transferred to a pre-chilled 0.1 cm electroporation cuvette.
Electrocompetent cells were electroporated with 90-mer oligos at: 1 uM for E. coli, 50 μg for L. lactis, and 10 uM for C. crescentus. 70-mer oligos were used at 1 μg for M. smegmatis. All oligos were obtained from IDT and can be found under “Oligonucleotides for genome editing” in materials and methods. For dsDNA experiments L. lactis was electroporated with 1.5 μg purified linear dsDNA. Cells were electroporated using a Bio-Rad gene pulser set to 25 μF, 200 S2, and 1.8 kV for E. coli, 2.0 kV for L. lactis, and 1.5 kV for C. crescentus and to 1000Ω and 2.5 kV for M. smegmatis. Immediately after electroporation, cells were recovered in fresh media for 3 hours for E. coli, 1 hour for L. lactis, overnight for M. smegmatis and overnight for C. crescentus. L. lactis recovery media was supplemented with MgCl2 and CaCl2) at a concentration of 20 mM and 2 mM, respectively. E. coli recovery media was supplemented with carbenicillin. M. smegmatis recovery media was supplemented with hygromycin. C. crescentus recovery media was supplemented with 0.3% xylose and kanamycin. After recovery, the cells were serial diluted and plated on non-selective vs. selective agar plates to obtain approximately 50-500 CFU/plate. Colonies were counted using a custom script in Fiji, and allelic recombination frequency was calculated by dividing the number of colonies on selective plates, with the number of colonies on non-selective plates.

Molecule	Editing efficiency with chimeric SSB	other results
L1SSB C8:EcSSB (protein) MINNVVLVGRITRDPELRYTPQNQAVATFSLAVNRQFKNANGEREADFINCVIWRQQAENLANWAKKGALIGVTGRIQTRNYENQQGQRVYVTEVVADSFQMLESRSARDGMGGGASAGSYSAPSQSTNNTPRPQTNNNSATPNFGRDADPFGSSPMEMEDFDDDIPF	–	Genome editing efficiency lower than Redβ with EcSSB: ≤ 2.6 fold
L1SSB C8:PaSSB (protein) MINNVVLVGRITRDPELRYTPQNQAVATFSLAVNRQFKNANGEREADFINCVIWRQQAENLANWAKKGALIGVTGRIQTRNYENQQGQRVYVTEVVADSFQMLESRSARDGMGGGASAGSYSAPSQSTNNTPRPQTNNNSATPNFGRDADPFGSSPMEMESFDDDIPF	completely recovered	–
L1SSB C8:MsSSB (protein) MINNVVLVGRITRDPELRYTPQNQAVATFSLAVNRQFKNANGEREADFINCVIWRQQAENLANWAKKGALIGVTGRIQTRNYENQQGQRVYVTEVVADSFQMLESRSARDGMGGGASAGSYSAPSQSTNNTPRPQTNNNSATPNFGRDADPFGSSPMEMEGADDEPPF	completely recovered	–
MutL.E32K from E. coli: dominant negative mismatch repair protein, SEQ ID NO: 515 (protein) MPIQVLPPQLANQIAAGEVVERPASVVKELVKNSLDAGATRIDIDIERGGAKLIRIRDNGCGIKKDELALALARHATSKIASLDDLEAIISLGFRGEALASISSVSRLTLTSRTAEQQEAWQAYAEGRDMNVTVKPAAHPVGTTLEVLDLFYNTPARRKFLRTEKTEFNHIDEIIRRIALARFDVTINLSHNGKIVRQYRAVPEGGQKERRLGAICGTAFLEQALAIEWQHGDLTLRGWVADPNHTTPALAEIQYCYVNGRMMRDRLINHAIRQACEDKLGADQQPAFVLYLEIDPHQVDVNVHPAKHEVRFHQSRLVHDFIYQGVLSVLQQQLETPLPLDDEPQPAPRSIPENRVAAGRNHFAEPAAREPVAPRYTPAPASGSRPAAPWPNAQPGYQKQQGEVYRQLLQTPAPMQKLKAPEPQEPALAANSQSFGRVLTIVHSDCALLERDGNISLLSLPVAERWLRQAQLTPGEAPVCAQPLLIPLRLKVSAEEKSALEKAQSALAELGIDFQSDAQHVTIRAVPLPLRQQNLQILIPELIGYLAKQSVFEPGNIAQWIARNLMSEHAQWSMAQAITLLADVERLCPQLVKTPPGGLLQSVDLHPAIKALKDE	–	Function of dominant negative MutL (co-expressed with PapRecT and PaSSB): nonfunctional
L1SSB C7:EcSSB (protein) MINNVVLVGRITRDPELRYTPQNQAVATFSLAVNRQFKNANGEREADFINCVIWRQQAENLANWAKKGALIGVTGRIQTRNYENQQGQRVYVTEVVADSFQMLESRSARDGMGGGASAGSYSAPSQSTNNTPRPQTNNNSATPNFGRDADPFGSSPMEIMEIFDDDIPF	–	Genome editing efficiency lower than Redβ with EcSSB: ≤ 5.9 fold
L1SSB C7:PaSSB (protein) MINNVVLVGRITRDPELRYTPQNQAVATFSLAVNRQFKNANGEREADFINCVIWRQQAENLANWAKKGALIGVTGRIQTRNYENQQGQRVYVTEVVADSFQMLESRSARDGMGGGASAGSYSAPSQSTNNTPRPQTNNNSATPNFGRDADPFGSSPMEIMEIFDDDIPF	completely recovered	–
L1SSB C7:MsSSB (protein) MINNVVLVGRITRDPELRYTPQNQAVATFSLAVNRQFKNANGEREADFINCVIWRQQAENLANWAKKGALIGVTGRIQTRNYENQQGQRVYVTEVVADSFQMLESRSARDGMGGGASAGSYSAPSQSTNNTPRPQTNNNSATPNFGRDADPFGSSPMEIMEIADDEPPF	completely recovered	–
